Reference: the nanobody polyreactivity screen of Harvey et al. (2022)

Assay: yeast display, Sf9 membrane polyspecificity reagent, FACS + sequencing; frameworks hold sequencing errors
Method in brief: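 Sorting gates, low and high (top ~1%), were placed on anti-HA fluorescence to track expression and on streptavidin fluorescence to track reagent binding. A clone's polyreactivity label is taken from the gate it came out of. The reagent was 10% biotinylated, detergent-solubilized Sf9 membrane, applied for 1 hour at 4 °C to galactose-induced yeast display cells.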

Row | Sequence | polyreactivity (PSR sort gate)
1 | QVQLVESGGGLVQAGVSLRLICAASGRIFALNTMGWYRQAPGKEREFVAAITTSGGSTYADSVKGRFTISRDNAKNTVYFQMNSLKPEYTAVYYFNKEYFHNWAPTYDYWGQGTQVTVSS | low polyreactivity
2 | QVQLVESGGGLVQAGVSLRLSCAASGFIFPYYAMGWYRQAPGKERELVAAITRGGRTYYADSVKGRFTISRDNAKNTVYLQMNSLKPEDTAVYYCAARSVGKRGYDYWGLGTQVTVSS | high polyreactivity
3 | QVQLVESGGGLVQAGVSLRLSCAASGFIIYGNAMGWYRQAPGKERELVAAINQTGSSTYADSVKGRFTISRDNAKNTVYLQMNSLKPEATAVYYCNKGSWYFFLYDYWGQGTQVTVSS | low polyreactivity
4 | QVQLVESGGGLVQAGVSLRLSCAASGFTFDYYAMGWYRQAPGKERELVAAISWSGGSTYYADSVKGRFTISRDNAKNTVFLQMNSLKPEDTAVYYCAGGRPNPRGRGLAYDFWVQGTQVTVSS | high polyreactivity
5 | QVQLVESGGGLVQAGVSLRLSCAASGFTFWRNAMGWYRQAPGKERELVAAISASGGSTYYADSVKGRFTISRDNAKNTVYLQMNSLKPEDTAVYYCAADTQGFYRYDYWGQGTQVTVSS | low polyreactivity
6 | QVQLVESGGGLVQAGVSLRLSCAASGITFPYYTMGCYRQAPGKERELVAAITSGGSTNYADSVKGRFTISRDNAKNTVYLQMNSLKPEDTAVYYCDGVLWLFDYWGQGTQVTVSS | high polyreactivity
7 | QVQLVESGGGLVQAGVSLRLSCAASGRIFAVNAMGWYRQAPGKERELVASIRWSGGSTYYADSVKGRFTISRDYAKNTVYLQMNSLKPEETAVYYCAAVIYLWGQGTQVTVSS | high polyreactivity
8 | QVQLVESGGGLVQAGVSLRLSCAASGRTFFYNAMGWYRQAPGKERELVAAISSGGGYTYYADSVKGRFTISRDNAKNTVYLQMNSLKPEDTAVYYCAAASYRQPGYGYWGQGTQVTVSS | high polyreactivity
9 | QVQLVESGGGLVQAGVSLRLSCAASGRTFGQYVMGWYRQAPGKERELVAAIRSGGSTYYADSVKGLFTISRDNAKNTVYIQLNSLKPEDTAVYYCNADSGPIDGRGGYWGQGTQVTVSS | low polyreactivity
10 | QVQLVESGGGLVQAGVSLRLSCAASGRTFSSYAMGWYRQAPRKERELVPGISWRGGRTYYADSVKGRFTISRDNGKNSVYLQMNSLKREDTAVYYCNKVYRTYYGDYRFSGIPRYDYVGQGTQVTVSS | high polyreactivity
11 | QVQLVESGGGLVQAGVSLRLSCAASGRTFYRYVMGWYRQAPGKERELVAAITPGGSTYADSVKGRFTISRDNAKNTVYLQMNSLKPEDTAVYFCNKRKASSSGYNYWGQGTQVTVSS | low polyreactivity
12 | QVQLVESGGGLVQAGVSLRLSCAASGRTSAYSAMGWYRQAPGKERQLVAGITRGGRTNYADSVKGRFTISRDNAKNTVYLQMHSLKPEDTAVYYCAAKYGYYWNSRTSGYWGQGTQVTVSS | high polyreactivity
13 | QVQLVESGGGLVQAGVSLRLSCAASGSFFGYYTMGWYRQAPGTERELVAAISASGGSTYYADSVKGRFTISRDNANNTVYLQLNSLKPEDTAVYYCAATSAANFPRGYYYWGQGTQVTVSS | high polyreactivity
14 | QVQLVESGGGLVQAGVSLRLSCAASGSIFFYNARGWYRQAPRKERELVAAITTRGGSTYYADSVKGRFTISRDNAQNYVYLQMNSLKPEDTAVSYCARSSRGKLDYWGQGTQVTVSS | low polyreactivity
15 | QVQLVESGGGLVQAGVSLRLSCAASGSIFGYYAMGWYRQAPGKERELVAAINYSGVSTYYADSVKGRFTISRDNAKNTVYLQMNSLKPDDTAVYYCAAKGRKSVYSRNSWGQGTQVTVSS | high polyreactivity
16 | QVQLVESGGGLVQAGVSLRLSCAASGSIFQTYDMGWYRQAPGKERELVAAITGSGDSTYYADSVKGRFTISRDNAKNTVYLQMNSLKPEDTAVYYCNADGPSTPWVEYGYWGQGTQVTVSS | low polyreactivity
17 | QVQLVESGGGLVQAGVSLRLSCAASGSIFVYNAMGWYRQAPGKERELVAAISSSGTRTYYADSVKARFTISRDNAKNTVYLQMNSLKPEDTAVYYCAAYYVPWGTLYHLDYWGQGTQVTVSS | high polyreactivity
